The values that follow come from paper PMC4762649, “Tel1 and Rif2 Regulate MRX Functions in End-Tethering and Repair of DNA Double-Strand Breaks” (PLoS Biology, 2016).

Conditions in all cases: both partners purified
One experiment deals with T1, Rad50-V1269M (S. cerevisiae, UniProt P12753 1-1312, V1269M).
T1 construct: Allele isolated after ethyl methanesulfonate mutagenesis; also called Rad50-V1269M mutant; purified Rad50-V1269M; source: overexpressed in yeast, purified (procedure devised for the wild-type protein)
T1 sequence (looked up): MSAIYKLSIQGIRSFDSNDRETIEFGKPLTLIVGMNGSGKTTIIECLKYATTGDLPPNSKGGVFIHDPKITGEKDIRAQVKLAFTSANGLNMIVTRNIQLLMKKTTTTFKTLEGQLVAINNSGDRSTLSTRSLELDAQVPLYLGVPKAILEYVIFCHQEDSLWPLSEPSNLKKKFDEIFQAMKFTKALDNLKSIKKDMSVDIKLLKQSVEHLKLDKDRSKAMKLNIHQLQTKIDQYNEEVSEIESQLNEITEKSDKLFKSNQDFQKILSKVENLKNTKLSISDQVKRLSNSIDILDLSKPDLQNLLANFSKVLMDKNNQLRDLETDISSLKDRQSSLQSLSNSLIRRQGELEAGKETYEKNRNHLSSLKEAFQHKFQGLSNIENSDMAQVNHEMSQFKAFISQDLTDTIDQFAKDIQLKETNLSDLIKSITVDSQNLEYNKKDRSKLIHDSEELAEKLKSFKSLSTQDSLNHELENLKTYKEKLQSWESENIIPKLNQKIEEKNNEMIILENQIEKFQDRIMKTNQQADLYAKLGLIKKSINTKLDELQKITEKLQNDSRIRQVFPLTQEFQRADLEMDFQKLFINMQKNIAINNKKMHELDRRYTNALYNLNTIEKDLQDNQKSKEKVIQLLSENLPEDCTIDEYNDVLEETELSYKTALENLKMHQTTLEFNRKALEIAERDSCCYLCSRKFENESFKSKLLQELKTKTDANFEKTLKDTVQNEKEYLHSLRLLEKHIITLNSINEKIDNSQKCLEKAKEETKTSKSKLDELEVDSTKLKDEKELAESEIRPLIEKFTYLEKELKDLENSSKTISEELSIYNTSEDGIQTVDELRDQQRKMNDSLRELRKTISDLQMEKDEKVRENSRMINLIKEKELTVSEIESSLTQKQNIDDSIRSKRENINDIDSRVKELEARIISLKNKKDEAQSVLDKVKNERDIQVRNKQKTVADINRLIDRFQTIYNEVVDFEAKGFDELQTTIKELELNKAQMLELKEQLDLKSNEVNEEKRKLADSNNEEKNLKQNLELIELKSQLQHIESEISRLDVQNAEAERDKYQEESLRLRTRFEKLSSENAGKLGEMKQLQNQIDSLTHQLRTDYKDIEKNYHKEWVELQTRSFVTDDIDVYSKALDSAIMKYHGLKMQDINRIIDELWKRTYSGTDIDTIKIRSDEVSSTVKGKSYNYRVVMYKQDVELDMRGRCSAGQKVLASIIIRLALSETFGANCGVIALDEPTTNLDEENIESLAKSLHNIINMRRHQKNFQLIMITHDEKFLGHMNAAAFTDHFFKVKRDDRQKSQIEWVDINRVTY
Nature of the experiment: SEC; Rad50 (or Rad50-V1269M), Mre11 and Xrs2 incubated together 5 h on ice; assembled complex separated from unassembled proteins on a Sephacryl S-400 gel filtration column; 0-4°C. A general note: Size exclusion chromatography separates by hydrodynamic size, large species first.

The next experiment concerns the target T2, Rad50 (S. cerevisiae, UniProt P12753 1-1312).
T2 construct: Rad50, S. cerevisiae, subunit of the MRX complex; also called wild-type Rad50; purified Rad50; source: overexpressed in yeast, purified
T2 sequence (looked up): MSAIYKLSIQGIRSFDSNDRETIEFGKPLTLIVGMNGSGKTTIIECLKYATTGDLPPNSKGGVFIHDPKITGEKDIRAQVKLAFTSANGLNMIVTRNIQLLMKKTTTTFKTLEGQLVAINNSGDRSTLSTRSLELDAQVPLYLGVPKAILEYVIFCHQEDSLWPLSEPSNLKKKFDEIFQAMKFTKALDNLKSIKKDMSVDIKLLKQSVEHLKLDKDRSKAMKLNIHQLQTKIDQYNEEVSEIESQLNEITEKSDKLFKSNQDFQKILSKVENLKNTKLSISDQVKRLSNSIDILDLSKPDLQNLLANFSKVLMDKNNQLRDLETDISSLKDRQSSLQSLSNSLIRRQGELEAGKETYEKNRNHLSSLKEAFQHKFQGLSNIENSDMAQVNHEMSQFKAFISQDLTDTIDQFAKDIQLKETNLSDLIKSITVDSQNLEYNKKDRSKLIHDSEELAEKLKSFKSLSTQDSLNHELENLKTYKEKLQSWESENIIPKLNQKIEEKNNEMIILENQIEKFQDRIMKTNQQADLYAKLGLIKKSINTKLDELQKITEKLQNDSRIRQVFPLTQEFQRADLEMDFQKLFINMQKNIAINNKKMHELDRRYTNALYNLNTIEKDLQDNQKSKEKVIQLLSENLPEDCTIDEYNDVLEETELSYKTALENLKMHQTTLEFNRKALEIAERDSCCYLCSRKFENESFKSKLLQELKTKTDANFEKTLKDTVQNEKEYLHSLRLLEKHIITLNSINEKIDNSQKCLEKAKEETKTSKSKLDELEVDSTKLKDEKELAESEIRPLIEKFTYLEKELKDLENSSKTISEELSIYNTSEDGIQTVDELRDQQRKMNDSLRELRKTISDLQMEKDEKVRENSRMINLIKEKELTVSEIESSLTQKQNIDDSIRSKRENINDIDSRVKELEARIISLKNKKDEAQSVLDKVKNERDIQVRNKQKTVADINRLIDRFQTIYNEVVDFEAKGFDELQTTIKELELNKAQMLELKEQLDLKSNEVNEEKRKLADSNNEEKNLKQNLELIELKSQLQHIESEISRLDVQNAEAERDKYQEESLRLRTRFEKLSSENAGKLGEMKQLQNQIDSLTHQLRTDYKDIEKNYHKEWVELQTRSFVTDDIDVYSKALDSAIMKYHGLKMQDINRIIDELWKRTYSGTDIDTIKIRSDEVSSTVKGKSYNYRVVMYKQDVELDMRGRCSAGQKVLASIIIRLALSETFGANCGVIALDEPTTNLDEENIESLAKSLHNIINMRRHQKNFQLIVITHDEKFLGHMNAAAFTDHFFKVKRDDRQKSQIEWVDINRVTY
The description is as above.

For experiment [1], the target named is T3, MR^V1269MX complex (Mre11-Rad50-V1269M-Xrs2) (S. cerevisiae, UniProt P32829 1-692; P12753 1-1312; P33301 1-854, V1269M).
T3 construct: Mre11, S. cerevisiae; as m3; Rad50, S. cerevisiae, with V1269M; as m2; Xrs2, S. cerevisiae; as m4; also called mutant MRX complex; source: subunits overexpressed in yeast and purified, assembled and separated by gel filtration; copies: + +
Nature of the experiment: pull-down; Flag-tagged Tel1 (50 ng) incubated with MR^V1269MX (100 ng) in the absence or presence of Rif2 (100 ng); captured on anti-Flag resin; immunoblotting. For orientation: Immunoblotting shows a protein as a band on a membrane.

B1: Mre11 (natural protein, S. cerevisiae, UniProt P32829 1-692, looked up)
chain: MDYPDPDTIRILITTDNHVGYNENDPITGDDSWKTFHEVMMLAKNNNVDMVVQSGDLFHVNKPSKKSLYQVLKTLRLCCMGDKPCELELLSDPSQVFHYDEFTNVNYEDPNFNISIPVFGISGNHDDASGDSLLCPMDILHATGLINHFGKVIESDKIKVVPLLFQKGSTKLALYGLAAVRDERLFRTFKDGGVTFEVPTMREGEWFNLMCVHQNHTGHTNTAFLPEQFLPDFLDMVIWGHEHECIPNLVHNPIKNFDVLQPGSSVATSLCEAEAQPKYVFILDIKYGEAPKMTPIPLETIRTFKMKSISLQDVPHLRPHDKDATSKYLIEQVEEMIRDANEETKQKLADDGEGDMVAELPKPLIRLRVDYSAPSNTQSPIDYQVENPRRFSNRFVGRVANGNNVVQFYKKRSPVTRSKKSGINGTSISDRDVEKLFSESGGELEVQTLVNDLLNKMQLSLLPEVGLNEAVKKFVDKDEKTALKEFISHEISNEVGILSTNEEFLRTDDAEEMKALIKQVKRANSVRPTPPKENDETNFAFNGNGLDSFRSSNREVRTGSPDITQSHVDNESRITHISQAESSKPTSKPKRVRTATKKKIPAFSDSTVISDAENELGDNNDAQDDVDIDENDIIMVSTDEEDASYGLLNGRKTKTKTRPAASTKTASRRGKGRASRTPKTDILGSLLAKKRK
notes: Mre11, S. cerevisiae, subunit of the MRX complex; also called purified Mre11; source: overexpressed in yeast, purified
As for B1, the binding result with Rad50-V1269M was “binds”.

B2: Xrs2 (natural protein, S. cerevisiae, UniProt P33301 1-854, looked up)
chain: MWVVRYQNTLEDGSISFISCCLQAFKTYSIGRSSKNPLIIKNDKSISRQHITFKWEINNSSDLKHSSLCLVNKGKLTSLNKKFMKVGETFTINASDVLKSTIIELGTTPIRIEFEWINEVWNIPPHLTQFRTMLSEYGISTEISINDIPANLMISDYPKSEDNSIRELYALVSTIPMKKSRFLMELCNTLLPTSKTNLKFDEMWNDMISNPEYNVFDFDPNILLSKFMRLNNIRVLTTIKSEPRLSSLLRTFNINLFAFDNIDSLYKYVDSLEASTEYLILTTTDKKENGKILCTIKTMLTSIIDGTLSAVINMKGASSRTLDNGKFDQISEGMSTILKTSRAPEVEASPVVSKKRKLNRRRVLPLDSLDFFAGGLSTKTLSENRSLTDAKRLNCGAESKTVISSPNIAEADEKHAPFLQNALKPTEDIGKKSGHSSPGAIIVSSPNLGTVNTSEDSLDKSLQSHKLPQPSLPEVAGIGSQTISSNSADYETAAVNSMDDAEVTKNFRVNHHQNIEQPSKNIRKLSNYSREISSPLQENCKSPVKELSIKEKSGTPHAFVEAIQETKNREVKRVKSTIVELKDEELSEEAINQLKNLAIVEPSNNLLRKSFDSEGNKTSRTTEKWENSLMEPEWHKRKNFKTFVKVRPKSKAHKEEGKNNTQSSDFIRNAAFLITRNYVPLKKYSKKDTTTKWGTEENEDMFALTEMERFGSNTFMSDNINSNTIQKRSQALNRFTNEDSSNEGEEDSFSFSRCSGTAASVQPLKNKIFITDEDDLGDIDDKSDRLNHRENNRNLFVVKEMNLRPNLSEECSKQSRHSRSATSRSRGSFGASNNGDGDDDDDDGPKFTFKRRKG
notes: Xrs2, S. cerevisiae, subunit of the MRX complex; also called purified Xrs2; source: overexpressed in yeast, purified
In the case of B2, the binding result with Rad50 and in the experiment with Rad50-V1269M was “binds” in each case.

B3: (His)6-tagged Rif2 (natural protein, S. cerevisiae, UniProt Q06208 1-395, looked up)
chain: MEHVDSDFAPIRRSKKVVDSDKIVKAISDDLEQKNFTVLRKLNLVPIKKSVSSPKVCKPSPVKERVDHVFYQKFKSMALQELGTNYLSISYVPSLSKFLSKNLRSMKNCIVFFDKVEHIHQYAGIDRAVSETLSLVDINVVIIEMNDYLMKEGIQSSKSKECIESMGQASYSGQLDFEASEKPSNHTSDLMMMVMRKINNDESIDHIVYFKFEQLDKLSTSTIIEPSKLTEFINVLSVLEKSNNIAFKVLIYSNNVSISSLLSTSLKKKLNTKYTVFEMPILTCAQEQEYLKKMIKFTFDSGSKLLQSYNSLVTCQLNNKESNLAIFFEFLKVFPHPFTYLFNAYTEIIVQSRTFDELLDKIRNRLTIKNYPHSAYNFKKNQRLPLKLTRKVHDR
notes: Rif2, S. cerevisiae; expressed from pET-Rif2 (gift from K. Sugimoto); No removal of the tag is described; the final preparation is called (His)6-Rif2; also called (His)6-Rif2; purified Rif2; source: E. coli BL21 Rosetta, purified (Ni-NTA, SP Sepharose, Mono S, Superdex 200)
Regarding B3, the binding result in experiment [1] was “binds”.
